Where two headings read alike, the source gives them in different places.
B1: SPOCK3 (protein, UniProt Q9BQ16 22-436, looked up)
Testican-3: AAAAVAAAGGRSDGGNFLDDKQWLTTISQYDKEVGQWNKFRDEVEDDYFRTWSPGKPFDQALDPAKDPCLKMKCSRHKVCIAQDSQTAVCISHRRLTHRMKEAGVDHRQWRGPILSTCKQCPVVYPSPVCGSDGHTYSFQCKLEYQACVLGKQISVKCEGHCPCPSDKPTSTSRNVKRACSDLEFREVANRLRDWFKALHESGSQNKKTKTLLRPERSRFDTSILPICKDSLGWMFNRLDTNYDLLLDQSELRSIYLDKNEQCTKAFFNSCDTYKDSLISNNEWCYCFQRQQDPPCQTELSNIQKRQGVKKLLGQYIPLCDEDGYYKPTQCHGSVGQCWCVDRYGNEVMGSRINGVADCAIDFEISGDFASGDFHEWTDDEDDEDDIMNDEDEIEDDDEDEGDDDDGGDDHDVYI
B2: TBC1D2B (protein, UniProt Q9UPU7 1-963, looked up)
TBC1 domain family member 2B: MPGAGARAEEGGGGGEGAAQGAAAEPGAGPAREPARLCGYLQKLSGKGPLRGYRSRWFVFDARRCYLYYFKSPQDALPLGHLDIADACFSYQGPDEAAEPGTEPPAHFQVHSAGAVTVLKAPNRQLMTYWLQELQQKRWEYCNSLDMVKWDSRTSPTPGDFPKGLVARDNTDLIYPHPNASAEKARNVLAVETVPGELVGEQAANQPAPGHPNSINFYSLKQWGNELKNSMSSFRPGRGHNDSRRTVFYTNEEWELLDPTPKDLEESIVQEEKKKLTPEGNKGVTGSGFPFDFGRNPYKGKRPLKDIIGSYKNRHSSGDPSSEGTSGSGSVSIRKPASEMQLQVQSQQEELEQLKKDLSSQKELVRLLQQTVRSSQYDKYFTSSRLCEGVPKDTLELLHQKDDQILGLTSQLERFSLEKESLQQEVRTLKSKVGELNEQLGMLMETIQAKDEVIIKLSEGEGNGPPPTVAPSSPSVVPVARDQLELDRLKDNLQGYKTQNKFLNKEILELSALRRNAERRERDLMAKYSSLEAKLCQIESKYLILLQEMKTPVCSEDQGPTREVIAQLLEDALQVESQEQPEQAFVKPHLVSEYDIYGFRTVPEDDEEEKLVAKVRALDLKTLYLTENQEVSTGVKWENYFASTVNREMMCSPELKNLIRAGIPHEHRSKVWKWCVDRHTRKFKDNTEPGHFQTLLQKALEKQNPASKQIELDLLRTLPNNKHYSCPTSEGIQKLRNVLLAFSWRNPDIGYCQGLNRLVAVALLYLEQEDAFWCLVTIVEVFMPRDYYTKTLLGSQVDQRVFRDLMSEKLPRLHGHFEQYKVDYTLITFNWFLVVFVDSVVSDILFKIWDSFLYEGPKVIFRFALALFKYKEEEILKLQDSMSIFKYLRYFTRTILDARKLISISFGDLNPFPLRQIRNRRAYHLEKVRLELTELEAIREDFLRERDTSPDKGELVSDEEEDT
B3: TRIM23 (protein, UniProt P36406 1-574, looked up)
E3 ubiquitin-protein ligase …: MATLVVNKLGAGVDSGRQGSRGTAVVKVLECGVCEDVFSLQGDKVPRLLLCGHTVCHDCLTRLPLHGRAIRCPFDRQVTDLGDSGVWGLKKNFALLELLERLQNGPIGQYGAAEESIGISGESIIRCDEDEAHLASVYCTVCATHLCSECSQVTHSTKTLAKHRRVPLADKPHEKTMCSQHQVHAIEFVCLEEGCQTSPLMCCVCKEYGKHQGHKHSVLEPEANQIRASILDMAHCIRTFTEEISDYSRKLVGIVQHIEGGEQIVEDGIGMAHTEHVPGTAENARSCIRAYFYDLHETLCRQEEMALSVVDAHVREKLIWLRQQQEDMTILLSEVSAACLHCEKTLQQDDCRVVLAKQEITRLLETLQKQQQQFTEVADHIQLDASIPVTFTKDNRVHIGPKMEIRVVTLGLDGAGKTTILFKLKQDEFMQPIPTIGFNVETVEYKNLKFTIWDVGGKHKLRPLWKHYYLNTQAVVFVVDSSHRDRISEAHSELAKLLTEKELRDALLLIFANKQDVAGALSVEEITELLSLHKLCCGRSWYIQGCDARSGMGLYEGLDWLSRQLVAAGVLDVA
B4: THAP1 (protein, UniProt Q9NVV9 1-213, looked up)
THAP domain-containing …: MVQSCSAYGCKNRYDKDKPVSFHKFPLTRPSLCKEWEAAVRRKNFKPTKYSSICSEHFTPDCFKRECNNKLLKENAVPTIFLCTEPHDKKEDLLEPQEQLPPPPLPPPVSQVDAAIGLLMPPLQTPVNLSVFCDHNYTVEDTMHQRKRIHQLEQQVEKLRKKLKTAQQRCRRQERQLEKLKEVVHFQKEKDDVSERGYVILPNDYFEIVEVPA
B5: SNX4 (protein, UniProt O95219 1-450, looked up)
Sorting nexin-4: MEQAPPDPERQLQPAPLEPLGSPDAGLGAAVGKEAEGAGEESSGVDTMTHNNFWLKKIEISVSEAEKRTGRNAMNMQETYTAYLIETRSVEHTDGQSVLTDSLWRRYSEFELLRSYLLVYYPHIVVPPLPEKRAEFVWHKLSADNMDPDFVERRRIGLENFLLRIASHPILCRDKIFYLFLTQEGNWKETVNETGFQLKADSRLKALNATFRVKNPDKRFTDLKHYSDELQSVISHLLRVRARVADRLYGVYKVHGNYGRVFSEWSAIEKEMGDGLQSAGHHMDVYASSIDDILEDEEHYADQLKEYLFYAEALRAVCRKHELMQYDLEMAAQDLASKKQQCEELVTGTVRTFSLKGMTTKLFGQETPEQREARIKVLEEQINEGEQQLKSKNLEGREFVKNAWADIERFKEQKNRDLKEALISYAVMQISMCKKGIQVWTNAKECFSKM
B6: SRPX2 (protein, UniProt O60687 24-465, looked up)
Sushi repeat-containing …: TWYAGSGYYPDESYNEVYAEEVPQAPALDYRVPRWCYTLNIQDGEATCYSPKGGNYHSSLGTRCELSCDRGFRLIGRRSVQCLPSRRWSGTAYCRQMRCHALPFITSGTYTCTNGVLLDSRCDYSCSSGYHLEGDRSRICMEDGRWSGGEPVCVDIDPPKIRCPHSREKMAEPEKLTARVYWDPPLVKDSADGTITRVTLRGPEPGSHFPEGEHVIRYTAYDRAYNRASCKFIVKVQVRRCPTLKPPQHGYLTCTSAGDNYGATCEYHCDGGYDRQGTPSRVCQSSRQWSGSPPICAPMKINVNVNSAAGLLDQFYEKQRLLIISAPDPSNRYYKMQISMLQQSTCGLDLRHVTIIELVGQPPQEVGRIREQQLSANIIEELRQFQRLTRSYFNMVLIDKQGIDRDRYMEPVTPEEIFTFIDDYLLSNQELTQRREQRDICE
B7: PLSCR1 (protein, UniProt O15162 1-318, looked up)
Phospholipid scramblase 1: MDKQNSQMNASHPETNLPVGYPPQYPPTAFQGPPGYSGYPGPQVSYPPPPAGHSGPGPAGFPVPNQPVYNQPVYNQPVGAAGVPWMPAPQPPLNCPPGLEYLSQIDQILIHQQIELLEVLTGFETNNKYEIKNSFGQRVYFAAEDTDCCTRNCCGPSRPFTLRIIDNMGQEVITLERPLRCSSCCCPCCLQEIEIQAPPGVPIGYVIQTWHPCLPKFTIQNEKREDVLKISGPCVVCSCCGDVDFEIKSLDEQCVVGKISKHWTGILREAFTDADNFGIQFPLDLDVKMKAVMIGACFLIDFMFFESTGSQEQKSGVW
B8: SPON1 (protein, UniProt Q9HCB6 29-807, looked up)
Spondin-1: FSDETLDKVPKSEGYCSRILRAQGTRREGYTEFSLRVEGDPDFYKPGTSYRVTLSAAPPSYFRGFTLIALRENREGDKEEDHAGTFQIIDEEETQFMSNCPVAVTESTPRRRTRIQVFWIAPPAGTGCVILKASIVQKRIIYFQDEGSLTKKLCEQDSTFDGVTDKPILDCCACGTAKYRLTFYGNWSEKTHPKDYPRRANHWSAIIGGSHSKNYVLWEYGGYASEGVKQVAELGSPVKMEEEIRQQSDEVLTVIKAKAQWPAWQPLNVRAAPSAEFSVDRTRHLMSFLTMMGPSPDWNVGLSAEDLCTKECGWVQKVVQDLIPWDAGTDSGVTYESPNKPTIPQEKIRPLTSLDHPQSPFYDPEGGSITQVARVVIERIARKGEQCNIVPDNVDDIVADLAPEEKDEDDTPETCIYSNWSPWSACSSSTCDKGKRMRQRMLKAQLDLSVPCPDTQDFQPCMGPGCSDEDGSTCTMSEWITWSPCSISCGMGMRSRERYVKQFPEDGSVCTLPTEETEKCTVNEECSPSSCLMTEWGEWDECSATCGMGMKKRHRMIKMNPADGSMCKAETSQAEKCMMPECHTIPCLLSPWSEWSDCSVTCGKGMRTRQRMLKSLAELGDCNEDLEQVEKCMLPECPIDCELTEWSQWSECNKSCGKGHVIRTRMIQMEPQFGGAPCPETVQRKKCRIRKCLRNPSIQKLRWREARESRRSEQLKEESEGEQFPGCRMRPWTAWSECTKLCGGGIQERYMTVKKRFKSSQFTSCKDKKEIRACNVHPC
B9: SSX2IP (protein, UniProt Q9Y2D8 1-614, looked up)
Afadin- and …: MGDWMTVTDPGLSSESKTISQYTSETKMSPSSLYSQQVLCSSIPLSKNVHSFFSAFCTEDNIEQSISYLDQELTTFGFPSLYEESKGKETKRELNIVAVLNCMNELLVLQRKNLLAQENVETQNLKLGSDMDHLQSCYSKLKEQLETSRREMIGLQERDRQLQCKNRNLHQLLKNEKDEVQKLQNIIASRATQYNHDMKRKEREYNKLKERLHQLVMNKKDKKIAMDILNYVGRADGKRGSWRTGKTEARNEDEMYKILLNDYEYRQKQILMENAELKKVLQQMKKEMISLLSPQKKKPRERVDDSTGTVISDVEEDAGELSRESMWDLSCETVREQLTNSIRKQWRILKSHVEKLDNQVSKVHLEGFNDEDVISRQDHEQETEKLELEIQQCKEMIKTQQQLLQQQLATAYDDDTTSLLRDCYLLEEKERLKEEWSLFKEQKKNFERERRSFTEAAIRLGLERKAFEEERASWLKQQFLNMTTFDHQNSENVKLFSAFSGSSDWDNLIVHSRQPQKKPHSVSNGSPVCMSKLTKSLPASPSTSDFCQTRSCISEHSSINVLNITAEEIKPNQVGGECTNQKWSVASRPGSQEGCYSGCSLSYTNSHVEKDDLP

Key:
[1] = target: T1, HCV ORFs (Gal4-DB fusions) (Hepatitis C virus genotype 1b, UniProt Q9WMX2); type: binding, HCV genotype 1b, isolate con1; details: human protein as prey
T1 construct: expressed in transfected cells; host or cells: Saccharomyces cerevisiae MAV203 (IMAP1) / AH109 (IMAP2)

[2] = system: HCV ORFs (Gal4-DB fusions); type: binding, HCV genotype 1b, isolate con1; details: human protein listed by gene symbol; the value names the HCV protein it interacts with
HCV proteins = target: T2, HCV proteins (Hepatitis C virus genotype 1b, UniProt Q9WMX2); assay: Validation by Y2H pairwise matrices; type: binding;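 note: yeast two-hybrid pairwise tests of interactions first found in Y2H screens of HCV bait proteins against human cDNA libraries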
T2 construct: expressed in transfected cells

[3] = validation of interaction with HCV protein NS3
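Throughout, for IMAP Y2H IMAP1 (number of IST): yeast two-hybrid screens using HCV genotype 1b proteins fused to Gal4-DB as baits against prey cDNA libraries from human spleen and foetal brain, IMAP1 via transformation and IMAP2 via mating.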
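Throughout, for Interaction with viral protein: yeast two-hybrid screens using HCV genotype 1b proteins fused to Gal4-DB as baits against prey cDNA libraries from human spleen and foetal brain, IMAP1 via transformation and IMAP2 via mating.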

Molecule | IMAP Y2H IMAP1 (number of IST) ([1]; HCV protein NS3 as bait) | Interaction with viral protein [2] | Y2H matrices (HCV proteins; [3]) | IMAP Y2H IMAP1 (number of IST) ([1]; HCV protein CORE as bait) | Y2H matrices (HCV proteins; validation of interaction with HCV protein CORE)
B1 | 1 | NS3 | + |  | 
B2 | 1 | NS3 | + |  | 
B3 | 5 | NS3 | + |  | 
B4 | 1 | NS3 | + |  | 
B5 | 1 | NS3 | + |  | 
B6 | 1 | NS3 | + |  | 
B7 |  | CORE |  | 1 | +
B8 | 1 | NS3 | + |  | 
B9 | 3 | NS3 | + |  | 

Source: patent publication US20110091994A1, “Methods for Screening Compounds for Treating and/or Preventing an Hepatitis C Virus Infection” (priority 2008, published 2011)
